{"source": "the DeepSol protein solubility set", "data": [{"assay": "soluble on expression in E. coli; label from the status in PepcDB or PDB records", "values": [{"sequence": "MPMTGRCREPNCHAVVVRPLHYCTKHADKEAAYQASRERWTNRTSNSKRYKDYDRMRSKDPFKAEQHKFYQGKQWRSIREIALRRDNYLCQYCLNHKRVRTGNIGDHIVPYEVEPENRTNLANIAIACSKCHTAKTKWEQLYYGTGMGNKLKNAIPIRNVKDLPDFQKNIRLEHHHHHH", "soluble on expression in E. coli": "not soluble"}, {"sequence": "MSDMEKPWKEEEKREVLAGHARRQAPQAVDKGPVTGDQRISVTVVLRRQRGDELEAHVERQAALAPHARVHLEREAFAASHGASLDDFAEIRKFAEAHGLTLDRAHVAAGTAVLSGPVDAVNQAFGVELRHFDHPDGSYRSYVGDVRVPASIAPLIEAVLGLDTRPVARPHFRLRRRAEGEFEARSQSAAPTAYTPLDVAQAYQFPEGLDGQGQCIAIIELGGGYDETSLAQYFASLGVSAPQVVSVSVDGATNQPTGDPNGPDGEVELDIEVAGALAPGAKIAVYFAPNTDAGFLNAITTAVHDPTHKPSIVSISWGGPEDSWAPASIAAMNRAFLDAAALGVTVLAAAGDSGSTDGEQDGLYHVDFPAASPYVLACGGTRLVASAGRIERETVWNDGPDGGSTGGGVSRIFPLPSWQERANVPPSANPGAGSGRGVPDVAGNADPATGYEVVIDGETTVIGGTAAVAPLFAALVARINQKLGKPVGYLNPTLYQLPPEVFHDITEGNNDIANRARIYQAGPGWDPCTGLGSPIGIRLLQALLPSASQAQP", "soluble on expression in E. coli": "soluble"}, {"sequence": "MGSDKIHHHHHHMHQFLRAIGFSDITKKQLNEVINNIIDKPEKLKVTKDFEGNEFAELSCDVAPNMGITVRGIYNDDDSFDIDYYYPYFTGSEKTTNEIIDIEKHSEKESYAGVCDDPNLGVTLIFYLQNVCDYLSEKAYINREVRAKGAVLSGLSVDGCILLPMKQKKAKTLNTVDSDKKDRKQLIAEARDGDESAMESLTMEDIDLYSSITRRIQNEDILSIVTTYFMPYGIESDQYSVLGDIIELTEEKNIITNEKIYCIKVSCNDIIFSVCINKNDLIGEPMVGRRFKGNIWMQGSICL", "soluble on expression in E. coli": "not soluble"}, {"sequence": "MSLNVFNTASDEDIKKGLASDVYFERTISAIGDKCNDLRVAMEATVSGPLDTWINFTGLDEVLKLLEGLDVDLYAIPEGTILFPRDANGLPVPFIRVEGRYCDFGMYETAILGFICQASGISTKASKVRLAAGDSPFFSFGIRRMHPAISPMIDRSAYIGGADGVSGILGAKLIDQDPVGTMPHALSIMLGDEEAWKLTLENTKNGQKSVLLIDTYMDEKFAAIKIAEMFDKVDYIRLDTPSSRRGNFEALIREVRWELALRGRSDIKIMVSGGLDENTVKKLREAGAEAFGVGTSISSAKPFDFAMDIVEVNGKPETKRGKMSGRKNVLRCTSCHRIEVVPANVQEKTCICGGSMQNLLVKYLSHGKRTSEYPRPKEIRSRSMKELEYFKDISEGHHHHHH", "soluble on expression in E. coli": "soluble"}, {"sequence": "METNFIGDDYGPLFHYQYRLIVIGDSTVGKSSLLRYFTEGKMAEISDPTVGVDFYARMIELRPGYRVKLQLWDTAGQEKFRSITKSYYRNSVGVLAIYDTTNRESFEHVENWVKEAALNLGGPSPSKCVFQLVGTKSDMDSQRQVNYEEGEYFAKYHKMKFIETSSRTGDNVNEAFHMIAQEIQNRVDDGELRPVDGWEGLKTGIMRSQSVCLSERSFPQNSSAGACGC", "soluble on expression in E. coli": "not soluble"}, {"sequence": "MSLQKLVAIEPVSLVLSAEKALYSFADEVVMYSDIPAGDNEIIARIGDADAVLLSYTSQINRYILERCPNVRYIGMCCSLYSPESANVDIRYANERGITVTGIRDYGDEGVIEYVVSELVRCLHGFGQKPWEGIPREITGLKVGIVGLGKSGGMIADAMKFFGADIAYYARSEKKEAGAKGYRFMPLNELLTWSEVVCCCLNKNTVLLHEAEFKALGNRKILFNTGLSPAWDESSFTRWLEEDNLCFCDTLGALGSTALLTHPHVRCMQVSTGRTRQAFDRLSEKVLANLSEYNGEGHHHHHH", "soluble on expression in E. coli": "soluble"}, {"sequence": "SLNKIKAFYNLPMAYYRLSNFLKHYIDDNTIIICIGTDRCIGDCLGPMVGTMLKEKFFPLNVYGTISEPIHALNIDKKLYKIKKDHTNSTIIGIDACLGDTENIGEIQVRDYAIHPGKGVGKSLPDVGEVSIVGIVDSCESSELFTNRNIRLNLIFEMSKVIVQTIIHSYYLHKTFSDSIFPDSASTLK", "soluble on expression in E. coli": "soluble"}, {"sequence": "MAISFDYSNALPFMQENELDYLSEFVKAAHHMLHERKGPGSDFLGWVDWPIRYDKNEFSRIKQAAERIRNHSDALVVIGIGGSYLGARAAIEALSHTFHNQMNDTTQIYFAGQNISSTYISHLLDVLEGKDLSINVISKSGTTTEPAIAFRIFRDYMEKKYGKEEARKRIYVTTDRTKGALKKLADQEGYETFVIPDNIGGRYSVLTAVGLLPIAVAGLNIDRMMEGAASAYHKYNNPDLLTNESYQYAAVRNILYRKGKAIELLVNYEPSLHYVSEWWKQLFGESEGKDQKGLFPASVDFTTDLHSMGQYVQEGRRNLIETVLHVKKPQIELTIQEDPENIDGLNFLAGKTLDEVNKKAFQGTLLAHVDGGVPNLIVELDEMNEYTFGEMVYFFEKACGISGHLLGVNPFDQPGVEAYKKNMFALLGKPGFEDEKAALMKRLSK", "soluble on expression in E. coli": "soluble"}, {"sequence": "MVTFNCEVCNDTVPKKNTEKHYYRCPNAYYTCIDCSKTFEDGVSYKNHTSCISEDEKYQKALYKGNKKQKQKQQQKQQQKQHQHQPVATPAKKVEKPVIKKAEKVEKTSNGIELHKGKSLYKILKTMKDKGAKKTFLKSLVVDSEGQIRYAKE", "soluble on expression in E. coli": "soluble"}, {"sequence": "GSMPKPINVRVTTMDAELEFAIQPNTTGKQLFDQVVKTVGLREVWFFGLQYVDSKGYSTWLKLNKKVTQQDVKKENPLQFKFRAKFFPEDVSEELIQEITQRLFFLQVKEAILNDEIYCPPETAVLLASYAVQAKYGDYNKEIHKPGYLANDRLLPQRVLEQHKLTKEQWEERIQNWHEEHRGMLREDSMMEYLKIAQDLEMYGVNYFEIKNKKGTELWLGVDALGLNIYEHDDKLTPKIGFPWSEIRNISFNDKKFVIKPIDKKAPDFVFYAPRLRINKRILALCMGNHELYMRRRKPDTIEVQQMKAQARVDSSGRIVTD", "soluble on expression in E. coli": "soluble"}, {"sequence": "MTKNTRFSPEVRQRAVRMVLESQGEYDSQWATICSIAPKIGCTPETLRVWGLRQHERDTGGGDGGLTTAERQRLKEPERENRELRRSNDILRQASAYFAKAEFDRLWKKLEHHHHHH", "soluble on expression in E. coli": "not soluble"}, {"sequence": "MGSDKIHHHHHHMQDFSNLVEKVENTLIPYFRKIEKRALFNQEKVLNAFHHVKASESDLQGSTGYGYDDFGRDHLEQIYAHTFKADDALVRPQIISGTHAITLALQSTLKNNDELLYITGSPYDTLLEVIGINGNGVESLKEYGVRYNEVELRDGRIDIPKVITAINDNTKVVAIQRSKGYDQRPSITINEIEQAITSIKEVYPNIIIFVDNCYGEFVEDKEPIEVGADLIAGSLIKNPGGGLAKIGGYIAGRQDLIERCGYRLTAPGIGKEAGASLNSLQEMYQGFFLAPHVVSQSLKGALFTSLLLEKINMKTSPKYNVYRTDLIQTVQFETKEQMISFCQSIQHASPINAHFSPEPSYMPGYEDDVIMAAGTFIQGSSIELSADGPIRPPYEAYVQGGLTYEHVKLAVTRAVQHMQENNLL", "soluble on expression in E. coli": "not soluble"}, {"sequence": "MQAAVTVTPARLPELLLGLATVRPVFLWGAPGIGKSSLVRNFADSLGLECVSLLGTQLAPEDLIGVPQIRDGRSVFCPPESIARDEPYCLFLDELNAATPDVQKAFYSLILDRRIGNYELPKGSLVIGAGNRATDNALARPIASALVNRLTHVHLDASAKDWLVWAGENGIHPWITDHLTDRPDHLWSKPPKTEEPFSTPRSWHMLSDALHSFGQDLDEETLKVLAHGTLTPAHATAFCGYVKIVRSRFGIEAILKGEARWPSRIEDRDLLYYLAESFRGRLVKELPASKEHMSANGRQTAYRAKSLLVQLAEISVEVAQSVIASDADGNPLLPAWFLVEAARDMPRLVEARRLEHHHHHH", "soluble on expression in E. coli": "not soluble"}, {"sequence": "MRKTRNQAGARQALKQLGMRNTSRSAAPRRGCVLSCFFEHLSLYDHSFFPHHSSQMFLFLKDSRFRKKMASQQDASPPTGYNMGHRHSLTIETNPLHLLPSNMRRFSQADTARHPAAPLLSKLAARQQIPEAVAEKKDDEKPENK", "soluble on expression in E. coli": "not soluble"}, {"sequence": "MVHVKDVLADQLLANANDPSWYMPFSDAVKDLSEREAFWKPNEECNSIAEIVQHLLYWNSTWQTRYKESHVNAVPAIGDNNKSFMLSDNQTFDELREKLLEKLLQWQTLINEEKVESDVVGFPVSAKWWEVLANVTTHNAYHIGQIIYIRKLQQSFDNK", "soluble on expression in E. coli": "not soluble"}, {"sequence": "MGSDKIHHHHHHMDLKEKILDYKDEVVKEIQNAVRVKSVKEAPLPGMPFGEGPAKALDHFMDLAKKLGFKAEKFDNYAMHIDMGEGKETLGILAHVDVVPEGDNWTYPPYSGTIADGKIFGRGTLDDKGPAIISLFAMKAIADSGVKLNKKIRMILGADEESGSACLKYYFGELKMPYPDIAFTPDSSFPVTYAEKGSVRVKIKKKFNTLQDLVIKGGNAFNSVPNEANGVIPVDMLGEVRNKNKVEFEREGNTYKVFSAGIPAHGAYPSKGYNAVSALFEVLKDIEVKNEELKGLVTFFDKFVKMETDGKSFGVKCTDGETGELTLNLGKINLENNELEIWIDMRIPVKVKNEQIIETIKENTEDYGYEFLLHSNTQPLYVAKDSFLVSTLMNIYKELTGDNDAEPVAIGGGTYAKYAKNAVAFGALLPDQEDRMHQRDEYLEISKIDKLLQIYVEAIYRLAK", "soluble on expression in E. coli": "not soluble"}, {"sequence": "MKVERVERVEDIDFEGLLKEGYTCFFFDFDNTLVPWKESKLEESKRRLLIELAKKARVVVVSNGKPRKVDLPVMFIWRAGKPFSLKLWRFLKKEKIDPKRCVMIGDQIFTDVLTGKIFGFRVIKVEPISAKEFFGTKILRFFEKILEGKVR", "soluble on expression in E. coli": "not soluble"}, {"sequence": "MEVEVGQIVNTHGIKGEVKVKSNSDFTETRFQPGEQLLVKHNNTEIVYTVASYRIHKGFHMLRFEGINNINEIEHLKGDYIYQERDHQDIELGEHEYYYSDIIGCTVFKDDDTPIGRVINIFETGANDVWVVKGEKEYLIPYIEDVVKDIDIETKTIKITPMEGLLDLEHHHHHH", "soluble on expression in E. coli": "soluble"}, {"sequence": "MTVFRQENVDDYYDTGEELGSGQFAVVKKCREKSTGLQYAAKFIKKRRTKSSRRGVSREDIEREVSILKEIQHPNVITLHEVYENKTDVILILELVAGGELFDFLAEKESLTEEEATEFLKQILNGVYYLHSLQIAHFDLKPENIMLLDRNVPKPRIKIIDFGLAHKIDFGNEFKNIFGTPEFVAPEIVNYEPLGLEADMWSIGVITYILLSGASPFLGDTKQETLANVSAVNYEFEDEYFSNTSALAKDFIRRLLVKDPKKRMTIQDSLQHPWIKPKDTQQALSRKASAVNMEKFKKFAARKKWKQSVRLISLCQRLSRSFLSRSNMSVARSD", "soluble on expression in E. coli": "soluble"}, {"sequence": "MKLRSWEFYDRIARAYDSMYETPKWKLYHRLIGSFLEEYLKNPCRVLDLGGGTGKWSLFLQERGFEVVLVDPSKEMLEVAREKGVKNVVEAKAEDLPFPSGAFEAVLALGDVLSYVENKDKAFSEIRRVLVPDGLLIATVDNFYTFLQQMIEKDAWDQITRFLKTQTTSVGTTLFSFNSYAFKPEDLDSLEGFETVDIRGIGVMEYPDERISEREETIFRLEQELSRDRNIIWKADHIFFVLKKKRGA", "soluble on expression in E. coli": "not soluble"}, {"sequence": "MTDVPALEIKNLHKTFGQNEVLKGISLQAQKGDVISIIGSSGSGKSTFLRCINLLETPTAGEIWVKGELIQMKTTRQGTVQPAKEKQVQRIRSRLAMVFQSFNLWSHMTVLENVIEAPVHVLGVPKAQAIEQAERLLRKVGLYERKDYYPGHLSGGQQQRAAIARALAVEPEVMLFDEPTSALDPELVGEVLGVMRDLAEEGRTMLVVTHEMAFARDVSNHVMFLHQGKVEEQGKPEKLFKNPDSERLKQFISSIY", "soluble on expression in E. coli": "not soluble"}, {"sequence": "MVSEAEFMAALAKFAETSATASAAADRVIAVANVDASRIADEFNALLGWAMKIATLLLEEISKNPSLKAEMAESHQMLFGNLGTIVPALLKFGPYINQILGNFGLSLGKLFGIVLAF", "soluble on expression in E. coli": "not soluble"}]}]}
